Assay [1] concerns the target SbtB ΔT-loop (T-loop Arg43-Ser52 truncation variant of SbtB) (Synechocystis sp. PCC 6803). The experiment in a line: cryo-EM structure.
For assay [2], the target named is sodium-dependent bicarbonate transporter SbtA (Synechocystis sp. PCC 6803). The assay can be described thus: cryo-EM structure.

Take “SbtB ΔT-loop (T-loop Arg43-Ser52 truncation variant of SbtB) (natural protein)”: the stoichiometry N in assay [1] was 3. Substance “sodium-dependent bicarbonate transporter SbtA (natural protein)” displayed a stoichiometry N in assay [2] of 3.

Values taken from article doi:10.1101/2023.08.10.552651.
